In patent US20210380680A1 (ZLLP, published 2021):
Read-outs that look alike come from different tables or passages of the source. Each block holds one binder with its values, some of them ahead of it.

What was measured:
[1] = biological target: T1, human Claudin 18.2 (CLDN18.2) (human, UniProt P56856-2 1-261); experiment: FACS on CHO-CLDN18.2 cells
T1 construct: whole, on cells; recombinantly expressed on CHO, HEK293, NCI-N87, NUGC4 or PANC-1 cells; also called CHO-CLDN18.2

[2] = biological target: T1, human Claudin 18.2 (CLDN18.2); experiment: FACS on CHO-18.2 cells @30 ug/ml
[3] = biological target: T2, CLDN18.2 endogenously expressed on SNU601 gastric cancer cells (UniProt P56856-2 1-261); experiment: FACS on SNU601 cells
T2 construct: whole, on cells

[4] = biological target: T1, human Claudin 18.2 (CLDN18.2); experiment: FACS on CHO-CLDN18.2 cells; remark: listed apart in the source
Experimental: Binding curves were generated to rank the binding affinities of hybridoma antibodies. Briefly, a total of 1×10⁵ CHO-CLDN18.2 cells for each well were seeded in 96-well plate and washed by FACS buffer (DPBS containing 2% FBS) twice. Cells were incubated by series diluted purified hybridoma antibodies for 1 h. After primary antibody incubation, cells were washed by FACS buffer for two times. […] FlowJo software was used for analysis. Data was plotted as the logarithm of antibody concentration versus mean fluorescence signals. Nonlinear regression analysis was performed by GraphPad Prism 6 (GraphPad Software) and EC50 values were calculated.

[5] = biological target: T3, CLDN18.2 endogenously expressed on SNU620 gastric cancer cells (UniProt P56856-2 1-261, limits assumed); experiment: FACS on SNU620 cells
T3 construct: whole, on cells; also called SU620

[6] = biological target: T1, human Claudin 18.2 (CLDN18.2); experiment: FACS on CHO-CLDN18.2 cells; remark: listed apart in the source
[7] = biological target: T1, human Claudin 18.2 (CLDN18.2); experiment: cell-based or functional assay
[8] = biological target: T1, human Claudin 18.2 (CLDN18.2); experiment: cell-based or functional assay; remark: listed apart in the source
[9] = biological target: T1, human Claudin 18.2 (CLDN18.2); experiment: cell-based or functional assay; remark: listed apart in the source
[10] = biological target: T1, human Claudin 18.2 (CLDN18.2); experiment: cell-based or functional assay; remark: listed apart in the source
[11] = biological target: T1, human Claudin 18.2 (CLDN18.2); experiment: cell-based or functional assay; remark: listed apart in the source

binding result [1]: binds
B1: chimeric 282A12F3 (xi282A12F3) (antibody, human IgG1, kappa, V domains shown)
VH: QVQLKESGPVLVQPSQTLSLTCTVAGFSLTSYNVYWVRQPPGKGLEWMGVIWNTGATRYNSTLKSRLSISKDTSKSQVFLKMNSLQTEDTATYYCARDSAMPAIPFAYWGQGTLVTVSS
VL: DIVMTQSPSSLAVSAGETVTINCKSSQSLFGSVRQKNYLAWYQQKPGQSPKLLIYLASTRESGVPDRFIGSGSGTDFTLTISSVQAEDLAKYYCQQYYDIPWTFGGGTKLELKR
notes: chimeric human IgG1

binding result [2]: binds
binding result [3]: binds
B2: 282A12F3 (rat hybridoma antibody) (antibody, V domains shown)
VH: QVQLKESGPVLVQPSQTLSLTCTVAGFSLTSYNVYWVRQPPGKGLEWMGVIWNTGATRYNSTLKSRLSISKDTSKSQVFLKMNSLQTEDTATYYCARDSAMPAIPFAYWGQGTLVTVSS
VL: DIVMTQSPSSLAVSAGETVTINCKSSQSLFGSVRQKNYLAWYQQKPGQSPKLLIYLASTRESGVPDRFIGSGSGTDFTLTISSVQAEDLAKYYCQQYYDIPWTFGGGTKLELK
notes: purified rat IgG from hybridoma

binding result [5]: no binding
B4: chimeric 357B8F8 (antibody, human IgG1, kappa, V domains shown)
VH: QVQLKESGPGLVAPSQSLSITCTVSGFSLTSYGVHWVRQPPGKGLEWLGVIWPGGNTNYNSALMSRLSISKDNSKSQVFLKMNSLQTDDTAMYYCARDRRLAMDYWGQGTSVTVSS
VL: DIVMTQSPSSLTVTAGEKVTMTCKSSQSLLNSGNQKNYLTWYQQKPGQPPKLLIYWASTRESGVPDRFTGSGSGTDFTLTISILQAEDLAVYYCQNDYSYPFTFGSGTKLEIKR
notes: chimeric human IgG1

EC50 [4]: 5.22 nM
B7: 364D1A7 (mouse hybridoma antibody) (antibody, V domains shown)
VH: DVQLVESGGGLVQPGGSRKLSCAASGFTFSSFGMHWVRQAPEKGLEWVAYISSGSGSIYYADTVKGRFTLSRDNPKNTLFLQMTSLRSEDTAIYYCATSYYYGNALEYWGQGTSVTVSS
VL: DVVLTQSPSSLTVTEGEKVSMSCKSSQSLFNSGNQKNYLTWYQQKPGQTPTLLIYWASTRKSGVPDRFTGSGSGTDFTLTINTVQAEDLAVYYCQNVYSYPLTFGAGTKLDLK
notes: purified mouse IgG from hybridoma

Second part, the binder before the results:

B3: 357B8F8 (mouse hybridoma antibody) (antibody, V domains shown)
VH: QVQLKESGPGLVAPSQSLSITCTVSGFSLTSYGVHWVRQPPGKGLEWLGVIWPGGNTNYNSALMSRLSISKDNSKSQVFLKMNSLQTDDTAMYYCARDRRLAMDYWGQGTSVTVSS
VL: DIVMTQSPSSLTVTAGEKVTMTCKSSQSLLNSGNQKNYLTWYQQKPGQPPKLLIYWASTRESGVPDRFTGSGSGTDFTLTISILQAEDLAVYYCQNDYSYPFTFGSGTKLEIK
notes: as for B7
EC50 [4]: 3.26 nM

B5: Ms175D10 (antibody, V domains shown)
VH: QVQLQQPGAELVRPGASVKLSCKASGYTFTSYWINWVKQRPGQGLEWIGNIYPSDSYTNYNQKFKDKATLTVDKSSSTAYMQLSSPTSEDSAVYYCTRSWRGNSFDYWGQGTTLTVSS
VL: DIVMTQSPSSLTVTAGEKVTMSCKSSQSLLNSGNQKNYLTWYQQKPGQPPKLLIYWASTRESGVPDRFTGSGSGTDFTLTISSVQAEDLAVYYCQNDYSYPFTFGSGTKLEIK
EC50 [4]: 3.68 nM

B6: 413H9F8 (mouse hybridoma antibody) (antibody, V domains shown)
VH: DVQLVESGGGSVQPGGSRRLSCAASGFTFSSFGMHWVRQAPEKGLEWVAYISSGSSPIYYVDKLKGRFTVSRDNPKNTLFLQMTSLRSEDTAMYYCARAGYAVRNALDYWGQGTSITVSS
VL: DIVMTQSPSSLSVSVGEKVTLSCKSSQSLLNSGNQKNYLAWYQQKTGQPPKLLIYGASTRESGVPDRFIGSGSGTDFTLTISSVQAEDLAVYFCQNDLFYPLTFGAGTKLELK
notes: as for B7
EC50 [4]: 8.3 nM

B8: 413H9F8-cp2 (antibody, V domains shown)
VH: DVQLVESGGGLVQPGGSLRLSCAASGFTFSSFGMHWVRQAPGKGLEWVAYISSGSSPIYYVDKLKGRFTISRDNAKNSLYLQMNSLRAEDTAVYYCARAGYAVRNALDYWGQGTLVTVSS
VL: EIVMTQSPPTLSLSPGERVTLSCKSSQSLLNVGNQKNYLAWYQQKPGQAPRLLIYGASTRESGIPARFSGSGSGTDFTLTISSLQPEDFAVYYCQNDLFYPLTFGGGTKVEIK
notes: humanized IgG; constant regions not specified
EC50 [6]: 1.99 nM
ADCC EC50, NUGC4-CLDN18.2, PBMC [7]: 0.0492 nM
% ADCC @ 6.67 nM, NCI-N87-CLDN18.2, FcR-TANK [8]: 13.2%
ADCC EC50, NCI-N87-CLDN18.2, FcR-TANK [8]: 0.24 nM
ADCC EC50, CHO-CLDN18.2, FcR-TANK [9]: 0.008 nM
CDC EC50, human serum, CHO-CLDN18.2 [10]: 1.13 nM
% specific cytotoxicity @ 6.67 nM, NUGC4-CLDN18.2, PBMC [11]: 32%
ADCC EC50, NUGC4-CLDN18.2, PBMC [11]: 5.3 nM

B9: 413H9F8-cp2-V2-DL (antibody, V domains shown)
VH: DVQLVESGGGLVQPGGSLRLSCAASGFTFSSFGMHWVRQAPGKGLEWVAYISSGSSPIYYVDKLKGRFTISRDNAKNSLYLQMNSLRAEDTAVYYCARAGYAVRNALDYWGQGTLVTVSS
VL: EIVMTQSPPTLSLSPGERVTLSCKSSQSLLNVGNQKNYLAWYQQKPGQAPRLLIYGASTRESGIPARFSGSGSGTDFTLTISSLQPEDFAVYYCQNDLFYPLTFGGGTKVEIK
ADCC EC50, NUGC4-CLDN18.2, PBMC [7]: 0.0146 nM
ADCC EC50, CHO-CLDN18.2, FcR-TANK [9]: 0.001 nM

B10: 413H9F8-cp2-MG-DL (antibody, V domains shown)
VH: DVQLVESGGGLVQPGGSLRLSCAASGFTFSSFGMHWVRQAPGKGLEWVAYISSGSSPIYYVDKLKGRFTISRDNAKNSLYLQMNSLRAEDTAVYYCARAGYAVRNALDYWGQGTLVTVSS
VL: EIVMTQSPPTLSLSPGERVTLSCKSSQSLLNVGNQKNYLAWYQQKPGQAPRLLIYGASTRESGIPARFSGSGSGTDFTLTISSLQPEDFAVYYCQNDLFYPLTFGGGTKVEIK
ADCC EC50, NUGC4-CLDN18.2, PBMC [7]: 0.0175 nM
ADCC EC50, CHO-CLDN18.2, FcR-TANK [9]: 0.0024 nM
